Target: HA ectodomain trimer (UniProt Q289M7 18-528)
Assay: Octet

B1: CR9114 (Fab, V domains shown)
VH: QVQLVQSGAEVKKPGSSVKVSCKSSGGTSNNYAISWVRQAPGQGLDWMGGISPIFGSTAYAQKFQGRVTISADIFSNTAYMELNSLTSEDTAVYFCARHGNYYYYSGMDVWGQGTTVTVSS
VL: SYVLTQPPAVSGTPGQRVTISCSGSDSNIGRRSVNWYQQFPGTAPKLLIYSNDQRPSVVPDRFSGSKSGTSASLAISGLQSEDEAEYYCAAWDDSLKGAVFGGGTQLTVL
B1 was tested, and the Kd was < 1 pM.
